Data set [1] deals with T1, Sco3058 (Streptomyces coelicolor, UniProt Q93J45).
T1 sequence (Q93J45 1-400): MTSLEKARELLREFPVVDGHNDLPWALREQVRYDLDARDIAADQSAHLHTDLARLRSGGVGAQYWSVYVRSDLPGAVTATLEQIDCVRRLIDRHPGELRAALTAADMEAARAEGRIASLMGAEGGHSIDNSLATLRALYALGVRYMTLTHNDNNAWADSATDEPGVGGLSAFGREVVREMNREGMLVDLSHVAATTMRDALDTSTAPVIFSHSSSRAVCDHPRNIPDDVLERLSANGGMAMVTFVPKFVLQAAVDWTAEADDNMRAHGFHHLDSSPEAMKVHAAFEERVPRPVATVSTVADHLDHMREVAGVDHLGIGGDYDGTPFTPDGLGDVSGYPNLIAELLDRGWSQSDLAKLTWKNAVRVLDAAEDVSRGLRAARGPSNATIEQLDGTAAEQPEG
Put plainly: ninhydrin-based dipeptidase assay, L-Leu-D-Ala substrate. It counts as biochemical.

The target of data set [2] is T1, Sco3058. Put plainly: crystal structure at […] Å. It counts as biochemical.
Substrate in data set [3]: N=C(N)NCCC[C@H](N)C(=O)N[C@H](CC(=O)O)C(=O)O
Put plainly: steady-state kinetics of hydrolysis by purified enzyme. It counts as biochemical, Streptomyces coelicolor. As to conditions: […] Zn2+.

Substrate in data set [4]: CC(C)C[C@H](N)C(=O)N[C@H](CCC(=O)O)C(=O)O
The description is as above. It counts as biochemical, Streptomyces coelicolor. Conditions: […] Zn2+.

Substrate in data set [5]: CSCC[C@H](N)C(=O)N[C@H](CCC(=O)O)C(=O)O
The data set is described as above. Format: biochemical, Streptomyces coelicolor. As to conditions: […] Zn2+.

Substrate in data set [6]: CSCC[C@H](N)C(=O)N[C@H](CC(C)C)C(=O)O
Described as above. Format: biochemical, Streptomyces coelicolor. Conditions: […] Zn2+.

Substrate in data set [7]: CC(C)C[C@H](N)C(=O)N[C@H](C)C(=O)O
The data set is described as above. It counts as biochemical, Streptomyces coelicolor. As to conditions: […] Zn2+.

Substrate in data set [8]: CC(C)C[C@@H](NC(=O)[C@@H](N)Cc1ccc(O)cc1)C(=O)O
Put plainly: purified protein. As to conditions: […] Zn2+.

In general, Ki refers to the equilibrium dissociation constant of an inhibitor or competing ligand from its target. A higher Ki goes with lower affinity. Broadly, the Km is the concentration of substrate that gives half-maximal velocity. For orientation: kcat means the number of substrate molecules converted per active site and unit of time at saturation. As a reminder, the kcat/Km is the second-order rate constant that governs catalysis at low substrate concentration.

Consider `NC(Cc1ccc(O)cc1)P(=O)(O)CC(CC(=O)O)C(=O)O` (racemic) [compound 3, phosphinate pseudodipeptide mimic of Tyr-Asp], for which, in data set [1], the Ki came out at 1.1 ± 0.2 µM.
On the same count and under the same terms, the figure for `NC(Cc1ccccc1)P(=O)(O)CC(CC(=O)O)C(=O)O` (racemic) [compound 2, phosphinate pseudodipeptide mimic of Phe-Asp] is 2.3 ± 0.3 µM.
Take `O=C(O)CC(O)(CC(=O)O)C(=O)O` [citrate]: the Ki in data set [2] worked out at 25000 ± 15000 µM.

B1: Sco3058 (Streptomyces coelicolor A3(2)) (protein)
chain: T1 sequence (Q93J45 1-400)
For the molecule B1, the Km in data set [3] amounted to 140 ± 20 µM; in data set [4], 550 ± 30 µM; in data set [5] it was 890 ± 40 µM; in data set [6], 560 ± 30 µM; in data set [7], 750 ± 40 µM; in data set [8], 170 ± 10 µM. In addition, the kcat in data set [3] was 107 ± 3.2 s⁻¹; in data set [4] it was 135 ± 2 s⁻¹; in data set [5], 340 ± 4 s⁻¹; in data set [6], 194 ± 4 s⁻¹; in data set [7], 160 ± 3 s⁻¹; in data set [8], 24 s⁻¹. For the same molecule, the kcat/Km in data set [3] stood at 760000 ± 90000 M⁻¹ s⁻¹; in data set [4], 250000 ± 10000 M⁻¹ s⁻¹; in data set [5], 380000 ± 20000 M⁻¹ s⁻¹; in data set [6] it was 350000 ± 30000 M⁻¹ s⁻¹; in data set [7] it was 210000 ± 10000 M⁻¹ s⁻¹; in data set [8], 150000 M⁻¹ s⁻¹.
